The target in assay [1] is FLucNC-Atto532 (Photinus pyralis). Briefly: AUC; sedimentation velocity, detection at 532 nm; GuHCl-denatured FLuc-Atto532 diluted to 200 nM in folding buffer with 3 µM DnaK, 1 µM DnaJ, 5 mM ATP.
Assay [2] addresses firefly luciferase (FLuc), wild type (Photinus pyralis) [luciferase: P08659].

Sequence of DnaK (P0A6Y8 whole entry): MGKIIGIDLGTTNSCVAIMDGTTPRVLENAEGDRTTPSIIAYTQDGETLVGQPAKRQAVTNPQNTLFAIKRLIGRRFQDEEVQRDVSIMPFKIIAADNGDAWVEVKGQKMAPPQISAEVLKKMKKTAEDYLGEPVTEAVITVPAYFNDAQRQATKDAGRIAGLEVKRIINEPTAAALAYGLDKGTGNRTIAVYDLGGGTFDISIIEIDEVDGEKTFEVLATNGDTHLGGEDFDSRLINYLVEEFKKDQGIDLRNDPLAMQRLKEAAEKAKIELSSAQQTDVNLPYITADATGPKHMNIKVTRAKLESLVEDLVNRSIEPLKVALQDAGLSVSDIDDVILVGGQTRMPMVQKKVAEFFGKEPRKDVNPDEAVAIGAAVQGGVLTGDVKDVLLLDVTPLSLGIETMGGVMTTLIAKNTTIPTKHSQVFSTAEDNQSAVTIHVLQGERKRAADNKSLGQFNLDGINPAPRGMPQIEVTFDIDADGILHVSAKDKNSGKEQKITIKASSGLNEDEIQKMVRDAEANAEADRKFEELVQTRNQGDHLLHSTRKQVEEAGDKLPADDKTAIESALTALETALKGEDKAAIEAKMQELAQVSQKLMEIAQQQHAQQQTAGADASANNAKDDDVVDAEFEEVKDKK
Sequence of DnaJ (P08622 whole entry): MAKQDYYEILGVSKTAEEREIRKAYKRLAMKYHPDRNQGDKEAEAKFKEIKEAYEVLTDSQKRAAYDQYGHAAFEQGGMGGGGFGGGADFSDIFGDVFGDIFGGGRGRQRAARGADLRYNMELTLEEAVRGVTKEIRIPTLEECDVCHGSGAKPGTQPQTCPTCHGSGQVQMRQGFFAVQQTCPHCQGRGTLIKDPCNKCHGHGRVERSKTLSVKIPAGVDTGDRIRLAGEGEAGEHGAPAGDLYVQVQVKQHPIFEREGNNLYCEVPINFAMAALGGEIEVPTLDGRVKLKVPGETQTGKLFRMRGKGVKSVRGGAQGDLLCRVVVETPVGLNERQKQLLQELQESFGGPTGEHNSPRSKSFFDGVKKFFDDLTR

On to “DnaK (from UniProt P0A6Y8 1-638) (natural protein)”, for which, in assay [1], the stoichiometry N (DnaK per FLuc) is 12.
“DnaJ (from UniProt P08622 1-376) (natural protein)”: the yield of luminescence refolding of FLuc in the presence of KJE without ATP in assay [2] is 40%.

Values taken from PMC6969021.
